Measurements reported in paper PMC5602300.

Experiments:
[1] = target: taxol-stabilized microtubules (pelleting assays) (UniProt P02550); test: co-sedimentation; as a5 with increasing microtubules, in the presence of an added Ndc80 complex (1 µM Ndc80 Bonsai; Ndc80 Broccoli); apparent
[2] = target: taxol-stabilized microtubules (pelleting assays) (UniProt P02550); test: co-sedimentation; microtubule pelleting with increasing taxol-stabilized microtubules; ~5 nM Astrin-SKAP complex, BRB80 with 25 mM KCl, 0.5 mg/mL BSA, room temperature 10 min, glycerol cushion; α-SKAP Western blot; apparent

Row | apparent KD in the presence of 1 µM Ndc80 Bonsai complex [1] [nM] | Kd [2] [nM] | Substance
1 | 1400 | 3200 | Astrin 1–693 complex (Astrin 1–693, SKAP, LC8, MYCBP) (from UniProt Q96R06 1-693; P63167 1-89; Q99417 1-103)
2 | 1700 | 2200 | Astrin 465–693 complex (Astrin 465–693, SKAP, LC8, MYCBP) (from UniProt Q96R06 465-693; P63167 1-89; Q99417 1-103)
